# Measured values taken from patent publication US20210324104A1 (INSERM INSTITUT NATIONAL DE LA SANT ET DE LA RECHERCHE M …, published 2021).
# T1: nectin-1 (UniProt Q15223 31-517, limits assumed)
# T1 construct: whole, on cells
# T1 sequence (looked up): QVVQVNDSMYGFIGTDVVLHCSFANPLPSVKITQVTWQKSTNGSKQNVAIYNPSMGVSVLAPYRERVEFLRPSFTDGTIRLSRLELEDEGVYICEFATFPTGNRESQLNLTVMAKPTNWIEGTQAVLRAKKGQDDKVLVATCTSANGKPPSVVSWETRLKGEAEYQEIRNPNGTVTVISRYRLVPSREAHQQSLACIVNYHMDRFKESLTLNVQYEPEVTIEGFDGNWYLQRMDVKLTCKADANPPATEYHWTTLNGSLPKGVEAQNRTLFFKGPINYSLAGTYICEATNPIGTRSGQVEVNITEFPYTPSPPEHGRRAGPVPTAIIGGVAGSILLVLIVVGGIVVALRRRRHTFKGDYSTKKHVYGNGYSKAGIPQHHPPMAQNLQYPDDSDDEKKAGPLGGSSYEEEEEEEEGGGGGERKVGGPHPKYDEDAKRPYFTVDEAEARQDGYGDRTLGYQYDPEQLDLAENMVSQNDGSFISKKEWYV
# T2: nectin-2 (UniProt Q92692 32-538, limits assumed)
# T2 construct: whole, on cells
# T2 sequence (looked up): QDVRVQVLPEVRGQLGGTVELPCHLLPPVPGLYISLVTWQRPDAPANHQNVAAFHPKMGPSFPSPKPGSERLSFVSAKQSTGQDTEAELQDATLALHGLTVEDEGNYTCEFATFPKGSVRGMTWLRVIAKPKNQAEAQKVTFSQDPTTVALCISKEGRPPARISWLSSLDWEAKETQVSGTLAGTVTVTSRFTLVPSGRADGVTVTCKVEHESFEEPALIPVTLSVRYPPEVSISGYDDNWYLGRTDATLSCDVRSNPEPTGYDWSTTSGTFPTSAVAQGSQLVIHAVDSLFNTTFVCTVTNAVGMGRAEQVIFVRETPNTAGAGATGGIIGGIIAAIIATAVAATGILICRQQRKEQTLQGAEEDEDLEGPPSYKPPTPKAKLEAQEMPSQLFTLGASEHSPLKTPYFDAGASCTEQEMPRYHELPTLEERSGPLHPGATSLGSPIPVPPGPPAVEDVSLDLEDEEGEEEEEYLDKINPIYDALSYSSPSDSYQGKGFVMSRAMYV
# B1: 14A5.2 monoclonal antibody (antibody, V domains shown)
# VH: EVLLQQSGPELVKPGASVKIPCKASGYTFTDYTMDWVKQSHGKSLEWIGDINPNNDVTMYNEKFKGRATLTVDKSSSTAYMEVRSLTSEDTAVYYCVRGRGFAYWGQGTLVTVSA
# VL: DIVLTQSPASLIVSLGQRATISCRASQSVSTSSNSYMHWYQQKPGQPPKLLIRFASNLESGVPARFSGSGSGTYFTLNIHPVEEEDSATYYCQHSWEIPYTFGGGTKLEIK
# notes: Parental non-chimeric monoclonal antibody; also called 14A5.2 mab; 14A5.2-HRP
# Columns and labels:
# [1] = target: T1, nectin-1; experiment: western blot of lysates of MDA-MB-231 cells transfected with null vector (wt cells express nectin-1, -2, -3); similar results by FACS
# [2] = target: T2, nectin-2; experiment: as above
binder,measurement,setting,value
B1,binding result,[1],no binding (tested: 1 µg/ml)
same,binding result,[2],no binding (tested: 1 µg/ml)
